Reference: patent US20260027208A1 (published 2026)
Like-named read-outs stand apart in the source and are kept apart here. Blank lines part the entries; values can stand above or below the binder they belong to.

How the values were obtained:
[1] = biological target: T1, KRAS G12D mutant peptide presented by HLA-A*11:01 on cells (human); experiment: cell-based or functional assay
[2] = biological target: T1, KRAS G12D mutant peptide presented by …; experiment: cell-based or functional assay; remark: listed apart in the source

T cell activation EC50 (CD137 vs G12D peptide dose), TRAC/TRBC double knockout T cells [1]: 9.4 nM
T cell activation EC50 (CD137 vs G12D peptide dose), WT TRAC/TRBC T cells [1]: 37.8 nM
Cmax (%) of CD137 T cell activation by G12D peptide, without knockout of TRAC and TRBC [2]: 23.9%
T cell activation EC50 (CD137 vs G12D peptide dose), TRAC/TRBC double knockout T cells [2]: 7.6 nM
T cell activation EC50 (CD137 vs G12D peptide dose), WT TRAC/TRBC T cells [2]: 36.3 nM
B1: TCR5 (TCR)
TCR alpha: RGEDVEQSLFLSVREGDSSVINCTYTDSSSTYLYWYKQEPGAGLQLLTYIFSNMDMKQDQRLTVLLNKKDKHLSLRIADTQTGDSAIYFCAERDAGNNRKLIWGLGTSLAVNPNIQNPDPAVYQLRDSKSSDKSVCLFTDFDSQTNVSQSKDSDVYITDKCVLDMRSMDFKSNSAVAWSNKSDFACANAFNNSIIPEDTFFPSPESSCDVKLVEKSFETDTNLNFQNLSVIGFRILLLKVAGFNLLMTLRLWSS
TCR beta: GAGVSQSPRYKVAKRGQDVALRCDPISGHVSLFWYQQALGQGPEFLTYFQNEAQLDKSGLPSDRFFAERPEGSVSTLKIQRTQQEDSAVYLCASSLEGGDTQYFGPGTRLTVLEDLKNVFPPEVAVFEPSEAEISHTQKATLVCLATGFYPDHVELSWWVNGKEVHSGVCTDPQPLKEQPALNDSRYCLSSRLRVSATFWQNPRNHFRCQVQFYGLSENDEWTQDRAKPVTQIVSAEAWGRADCGFTSESYQQGVLSATILYEILLGKATLYAVLVSALVLMAMVKRKDSRG

T cell activation EC50 (CD137 vs G12D peptide dose), TRAC/TRBC double knockout T cells [1]: 4.4 nM
T cell activation EC50 (CD137 vs G12D peptide dose), WT TRAC/TRBC T cells [1]: 31.1 nM
Cmax (%) of CD137 T cell activation by G12D peptide, without knockout of TRAC and TRBC [2]: 16%
T cell activation EC50 (CD137 vs G12D peptide dose), TRAC/TRBC double knockout T cells [2]: 11.8 nM
T cell activation EC50 (CD137 vs G12D peptide dose), WT TRAC/TRBC T cells [2]: 49.8 nM
B2: TCR4 (TCR)
TCR alpha: QKEVEQDPGPLSVPEGAIVSLNCTYSNSAFQYFMWYRQYSRKGPELLMYTYSSGNKEDGRFTAQVDKSSKYISLFIRDSQPSDSATYLCAMGALNSGAGSYQLTFGKGTKLSVIPNIQNPDPAVYQLRDSKSSDKSVCLFTDFDSQTNVSQSKDSDVYITDKCVLDMRSMDFKSNSAVAWSNKSDFACANAFNNSIIPEDTFFPSPESSCDVKLVEKSFETDTNLNFQNLSVIGFRILLLKVAGFNLLMTLRLWSS
TCR beta: KAGVTQTPRYLIKTRGQQVTLSCSPISGHRSVSWYQQTPGQGLQFLFEYFSETQRNKGNFPGRFSGRQFSNSRSEMNVSTLELGDSALYLCASSLSSGTGTEAFFGQGTRLTVEDLKNVFPPEVAVFEPSEAEISHTQKATLVCLATGFYPDHVELSWWVNGKEVHSGVCTDPQPLKEQPALNDSRYCLSSRLRVSATFWQNPRNHFRCQVQFYGLSENDEWTQDRAKPVTQIVSAEAWGRADCGFTSESYQQGVLSATILYEILLGKATLYAVLVSALVLMAMVKRKDSRG

T cell activation EC50 (CD137 vs G12D peptide dose), TRAC/TRBC double knockout T cells [1]: 14.4 nM
T cell activation EC50 (CD137 vs G12D peptide dose), WT TRAC/TRBC T cells [1]: 179 nM
Cmax (%) of CD137 T cell activation by G12D peptide, without knockout of TRAC and TRBC [2]: 14.4%
T cell activation EC50 (CD137 vs G12D peptide dose), TRAC/TRBC double knockout T cells [2]: 36.5 nM
T cell activation EC50 (CD137 vs G12D peptide dose), WT TRAC/TRBC T cells [2]: 131 nM
B3: TCR91 (TCR)
TCR alpha: AQKVTQAQTEISVVEKEDVTLDCVYETRDTTYYLFWYKQPPSGELVFLIRRNSFDEQNEISGRYSWNFQKSTSSFNFTITASQVVDSAVYFCALNEGGGSTLGRLYFGRGTQLTVWPDIQNPDPAVYQLRDSKSSDKSVCLFTDFDSQTNVSQSKDSDVYITDKCVLDMRSMDFKSNSAVAWSNKSDFACANAFNNSIIPEDTFFPSPESSCDVKLVEKSFETDTNLNFQNLSVIGFRILLLKVAGFNLLMTLRLWSS
TCR beta: MGPGLLHWMALCLLGTGHGDAMVIQNPRYQVTQFGKPVTLSCSQTLNHNVMYWYQQKSSQAPKLLFHYYDKDFNNEADTPDNFQSRRPNTSFCFLDIRSPGLGDAAMYLCATSTGRVYQPQHFGDGTRLSILEDLNKVFPPEVAVFEPSEAEISHTQKATLVCLATGFFPDHVELSWWVNGKEVHSGVCTDPQPLKEQPALNDSRYCLSSRLRVSATFWQNPRNHFRCQVQFYGLSENDEWTQDRAKPVTQIVSAEAWGRADCGFTSVSYQQGVLSATILYEILLGKATLYAVLVSALVLMAMVKRKDFGGSG
